US7410949 (Hoffmann-La Roche, dated 2008)
*1 amine or outer side, *2 acyl side, *3 side chain or, on linkers, in order; H or OH if unused. [ ]: non-standard residue; d: D form. Pqa = N-piperazin-1-yl-4(3H)-quinazolinone-3-acetic acid, O=C(Cn1cnc2ccc(N3CCN([*:1])CC3)cc2c1=O)[*:2]; Phe(F5) = N[C@@H](Cc1c(F)c(F)c(F)c(F)c1F)C(=O)O; Nle = CCCC[C@H](N)C(=O)O

What was measured:
Y1R = test: cell-based or functional assay
Y4R = test: cell-based or functional assay

Chain of Y1R (P25929 whole entry): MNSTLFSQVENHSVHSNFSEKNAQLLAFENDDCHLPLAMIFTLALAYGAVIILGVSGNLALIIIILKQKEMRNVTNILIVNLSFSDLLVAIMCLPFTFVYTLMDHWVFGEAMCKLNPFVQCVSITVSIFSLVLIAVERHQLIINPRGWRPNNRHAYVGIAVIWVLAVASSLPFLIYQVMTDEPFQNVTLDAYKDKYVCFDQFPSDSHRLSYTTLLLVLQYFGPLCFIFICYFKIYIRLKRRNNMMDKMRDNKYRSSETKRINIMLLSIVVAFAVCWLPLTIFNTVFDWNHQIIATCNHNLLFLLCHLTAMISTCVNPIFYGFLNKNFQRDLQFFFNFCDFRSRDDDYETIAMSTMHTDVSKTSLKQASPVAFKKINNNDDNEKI

Binder	Y1R EC50(nM) FLIPR (Y1R)	Y4R EC50(nM) FLIPR (Y4R)
H-IK[Pqa]RHYLNLVARQRY-NH2 (SMILES CC[C@H](C)[C@H](N)C(=O)N[C@@H](CCCCN)C(=O)N1CCN(c2ccc3ncn(CC(=O)N[C@@H](CCCNC(=N)N)C(=O)N[C@@H](Cc4c[nH]cn4)C(=O)N[C@@H](Cc4ccc(O)cc4)C(=O)N[C@@H](CC(C)C)C(=O)N[C@@H](CC(N)=O)C(=O)N[C@@H](CC(C)C)C(=O)N[C@H](C(=O)N[C@@H](C)C(=O)N[C@@H](CCCNC(=N)N)C(=O)N[C@@H](CCC(N)=O)C(=O)N[C@@H](CCCNC(=N)N)C(=O)N[C@@H](Cc4ccc(O)cc4)C(N)=O)C(C)C)c(=O)c3c2)CC1) [H-Ile-Lys-Pqa-Arg-His-Tyr-Leu-Asn-Leu-Val-Ala-Arg-Gln-Arg-Tyr-NH2]	> 5000 nM	> 5000 nM
IKRHYLNLVTRQRY ((D)Lys at PYY position 4 (residue 2 of the first part); Pqa moiety between the two parts; C-terminal amide) [H-Ile-(D)Lys-Pqa-Arg-His-Tyr-Leu-Asn-Leu-Val-Thr-Arg-Gln-Arg-Tyr-NH2]	> 5000 nM	> 5000 nM
IKRHYLNLVTRQRY (N-methyl Tyr at PYY position 36 (residue 12 of the second part); Pqa moiety between the two parts; C-terminal amide) [H-Ile-Lys-Pqa-Arg-His-Tyr-Leu-Asn-Leu-Val-Thr-Arg-Gln-Arg-(NMe)Tyr-NH2]	> 5000 nM	> 5000 nM
IKRHYLNLVTRQRY (N-methyl Leu at PYY position 30 (residue 6 of the second part); Pqa moiety between the two parts; C-terminal amide) [H-Ile-Lys-Pqa-Arg-His-Tyr-Leu-Asn-(NMe)Leu-Val-Thr-Arg-Gln-Arg-Tyr-NH2]	> 5000 nM	> 5000 nM
IKRHYLNLVTRQRY (N-methyl Arg at PYY position 33 (residue 9 of the second part); Pqa moiety between the two parts; C-terminal amide) [H-Ile-Lys-Pqa-Arg-His-Tyr-Leu-Asn-Leu-Val-Thr-(NMe)Arg-Gln-Arg-Tyr-NH2]	> 5000 nM	> 5000 nM
IKRHYLNLVTRQRY (N-methyl Thr at PYY position 32 (residue 8 of the second part); Pqa moiety between the two parts; C-terminal amide) [H-Ile-Lys-Pqa-Arg-His-Tyr-Leu-Asn-Leu-Val-(NMe)Thr-Arg-Gln-Arg-Tyr-NH2]	> 5000 nM	> 5000 nM

The next lines start with the values.

Y1R EC50(nM) FLIPR (Y1R)	Y4R EC50(nM) FLIPR (Y4R)	Binder
> 5000 nM	> 5000 nM	IKRHYLNLVTRQRY ((D)Arg at PYY position 35 (residue 11 of the second part); Pqa moiety between the two parts; C-terminal amide) [H-Ile-Lys-Pqa-Arg-His-Tyr-Leu-Asn-Leu-Val-Thr-Arg-Gln-(D)Arg-Tyr-NH2]
> 5000 nM	> 5000 nM	IKRHYLNLVTRQRY (N-methyl Tyr at PYY position 27 (residue 3 of the second part); Pqa moiety between the two parts; C-terminal amide) [H-Ile-Lys-Pqa-Arg-His-(NMe)Tyr-Leu-Asn-Leu-Val-Thr-Arg-Gln-Arg-Tyr-NH2]
> 5000 nM	> 5000 nM	Ac-I[Nle][Pqa]FHYLNLVTRQRY-NH2 (SMILES CCCC[C@H](NC(=O)[C@@H](NC(C)=O)[C@@H](C)CC)C(=O)N1CCN(c2ccc3ncn(CC(=O)N[C@@H](Cc4ccccc4)C(=O)N[C@@H](Cc4c[nH]cn4)C(=O)N[C@@H](Cc4ccc(O)cc4)C(=O)N[C@@H](CC(C)C)C(=O)N[C@@H](CC(N)=O)C(=O)N[C@@H](CC(C)C)C(=O)N[C@H](C(=O)N[C@H](C(=O)N[C@@H](CCCNC(=N)N)C(=O)N[C@@H](CCC(N)=O)C(=O)N[C@@H](CCCNC(=N)N)C(=O)N[C@@H](Cc4ccc(O)cc4)C(N)=O)[C@@H](C)O)C(C)C)c(=O)c3c2)CC1) [Ac-Ile-Nle-Pqa-Phe-His-Tyr-Leu-Asn-Leu-Val-Thr-Arg-Gln-Arg-Tyr-NH2]
> 5000 nM	> 5000 nM	IKRHYLNLVTRQRY (N-methyl Leu at PYY position 28 (residue 4 of the second part); Pqa moiety between the two parts; C-terminal amide) [H-Ile-Lys-Pqa-Arg-His-Tyr-(NMe)Leu-Asn-Leu-Val-Thr-Arg-Gln-Arg-Tyr-NH2]
> 5000 nM	> 5000 nM	Ac-I[Nle][Pqa][Phe(F5)]HYLNLVTRQRY-NH2 (SMILES CCCC[C@H](NC(=O)[C@@H](NC(C)=O)[C@@H](C)CC)C(=O)N1CCN(c2ccc3ncn(CC(=O)N[C@@H](Cc4c(F)c(F)c(F)c(F)c4F)C(=O)N[C@@H](Cc4c[nH]cn4)C(=O)N[C@@H](Cc4ccc(O)cc4)C(=O)N[C@@H](CC(C)C)C(=O)N[C@@H](CC(N)=O)C(=O)N[C@@H](CC(C)C)C(=O)N[C@H](C(=O)N[C@H](C(=O)N[C@@H](CCCNC(=N)N)C(=O)N[C@@H](CCC(N)=O)C(=O)N[C@@H](CCCNC(=N)N)C(=O)N[C@@H](Cc4ccc(O)cc4)C(N)=O)[C@@H](C)O)C(C)C)c(=O)c3c2)CC1) [Ac-Ile-Nle-Pqa-(2,3,4,5,6 Penta fluoro Phe)-His Tyr-Leu-Asn-Leu-Val-Thr-Arg-Gln-Arg-Tyr-NH2]
> 5000 nM	> 5000 nM	H-IK[Pqa]RHYLNLVTRARY-NH2 (SMILES CC[C@H](C)[C@H](N)C(=O)N[C@@H](CCCCN)C(=O)N1CCN(c2ccc3ncn(CC(=O)N[C@@H](CCCNC(=N)N)C(=O)N[C@@H](Cc4c[nH]cn4)C(=O)N[C@@H](Cc4ccc(O)cc4)C(=O)N[C@@H](CC(C)C)C(=O)N[C@@H](CC(N)=O)C(=O)N[C@@H](CC(C)C)C(=O)N[C@H](C(=O)N[C@H](C(=O)N[C@@H](CCCNC(=N)N)C(=O)N[C@@H](C)C(=O)N[C@@H](CCCNC(=N)N)C(=O)N[C@@H](Cc4ccc(O)cc4)C(N)=O)[C@@H](C)O)C(C)C)c(=O)c3c2)CC1) [H-Ile-Lys-Pqa-Arg-His-Tyr-Leu-Asn-Leu-Val-Thr-Arg-Ala-Arg-Tyr-NH2]
> 5000 nM	> 5000 nM	H-IK[Pqa]RHYLNLATRQRY-NH2 (SMILES CC[C@H](C)[C@H](N)C(=O)N[C@@H](CCCCN)C(=O)N1CCN(c2ccc3ncn(CC(=O)N[C@@H](CCCNC(=N)N)C(=O)N[C@@H](Cc4c[nH]cn4)C(=O)N[C@@H](Cc4ccc(O)cc4)C(=O)N[C@@H](CC(C)C)C(=O)N[C@@H](CC(N)=O)C(=O)N[C@@H](CC(C)C)C(=O)N[C@@H](C)C(=O)N[C@H](C(=O)N[C@@H](CCCNC(=N)N)C(=O)N[C@@H](CCC(N)=O)C(=O)N[C@@H](CCCNC(=N)N)C(=O)N[C@@H](Cc4ccc(O)cc4)C(N)=O)[C@@H](C)O)c(=O)c3c2)CC1) [H-Ile-Lys-Pqa-Arg-His-Tyr-Leu-Asn-Leu-Ala-Thr-Arg-Gln-Arg-Tyr-NH2]
